Data on two substances can be found in US20100008937A1.

For assay [1], the target named is human HA (high-affinity) LFA-1 on stably transfected K562 cells (human) (UniProt P20701). Put plainly: cell-based or functional assay.
Assay [2] deals with human WT LFA-1 on stably transfected K562 cells (human) (UniProt P20701). As to the kind of experiment: cell-based or functional assay.
human WT LFA-1 on stably transfected K562 cells (human), sequence (P20701 26-1170, chain 1 of 2): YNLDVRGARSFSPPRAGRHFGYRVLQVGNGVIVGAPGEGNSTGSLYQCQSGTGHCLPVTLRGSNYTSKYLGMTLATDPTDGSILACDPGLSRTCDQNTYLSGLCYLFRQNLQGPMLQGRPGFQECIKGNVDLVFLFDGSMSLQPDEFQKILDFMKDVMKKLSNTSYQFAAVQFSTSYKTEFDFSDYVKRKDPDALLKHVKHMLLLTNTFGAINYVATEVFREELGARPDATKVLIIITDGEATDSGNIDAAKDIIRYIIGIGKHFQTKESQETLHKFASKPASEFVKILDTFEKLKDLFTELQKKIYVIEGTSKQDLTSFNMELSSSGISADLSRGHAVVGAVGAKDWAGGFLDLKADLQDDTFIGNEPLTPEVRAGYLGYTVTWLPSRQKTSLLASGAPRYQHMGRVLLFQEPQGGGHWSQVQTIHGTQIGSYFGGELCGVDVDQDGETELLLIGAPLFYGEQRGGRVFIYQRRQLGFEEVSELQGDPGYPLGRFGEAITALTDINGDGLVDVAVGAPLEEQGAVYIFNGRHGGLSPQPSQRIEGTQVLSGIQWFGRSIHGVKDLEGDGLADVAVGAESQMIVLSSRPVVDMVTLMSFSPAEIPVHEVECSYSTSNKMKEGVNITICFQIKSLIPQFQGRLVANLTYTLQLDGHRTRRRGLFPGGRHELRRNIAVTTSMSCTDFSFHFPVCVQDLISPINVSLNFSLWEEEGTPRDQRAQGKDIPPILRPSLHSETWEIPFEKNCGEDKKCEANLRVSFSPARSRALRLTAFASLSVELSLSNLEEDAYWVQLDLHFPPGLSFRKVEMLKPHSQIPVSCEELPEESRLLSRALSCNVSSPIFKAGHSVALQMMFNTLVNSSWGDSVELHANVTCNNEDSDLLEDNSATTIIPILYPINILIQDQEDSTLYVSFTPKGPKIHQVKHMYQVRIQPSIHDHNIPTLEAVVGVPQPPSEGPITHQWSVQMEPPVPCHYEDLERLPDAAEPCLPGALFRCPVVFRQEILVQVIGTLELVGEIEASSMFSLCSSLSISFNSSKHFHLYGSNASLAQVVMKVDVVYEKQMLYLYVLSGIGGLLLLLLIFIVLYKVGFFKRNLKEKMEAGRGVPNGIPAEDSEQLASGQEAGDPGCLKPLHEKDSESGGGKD
human WT LFA-1 on stably transfected K562 cells (human), sequence (P05107 23-769, chain 2 of 2, further chain): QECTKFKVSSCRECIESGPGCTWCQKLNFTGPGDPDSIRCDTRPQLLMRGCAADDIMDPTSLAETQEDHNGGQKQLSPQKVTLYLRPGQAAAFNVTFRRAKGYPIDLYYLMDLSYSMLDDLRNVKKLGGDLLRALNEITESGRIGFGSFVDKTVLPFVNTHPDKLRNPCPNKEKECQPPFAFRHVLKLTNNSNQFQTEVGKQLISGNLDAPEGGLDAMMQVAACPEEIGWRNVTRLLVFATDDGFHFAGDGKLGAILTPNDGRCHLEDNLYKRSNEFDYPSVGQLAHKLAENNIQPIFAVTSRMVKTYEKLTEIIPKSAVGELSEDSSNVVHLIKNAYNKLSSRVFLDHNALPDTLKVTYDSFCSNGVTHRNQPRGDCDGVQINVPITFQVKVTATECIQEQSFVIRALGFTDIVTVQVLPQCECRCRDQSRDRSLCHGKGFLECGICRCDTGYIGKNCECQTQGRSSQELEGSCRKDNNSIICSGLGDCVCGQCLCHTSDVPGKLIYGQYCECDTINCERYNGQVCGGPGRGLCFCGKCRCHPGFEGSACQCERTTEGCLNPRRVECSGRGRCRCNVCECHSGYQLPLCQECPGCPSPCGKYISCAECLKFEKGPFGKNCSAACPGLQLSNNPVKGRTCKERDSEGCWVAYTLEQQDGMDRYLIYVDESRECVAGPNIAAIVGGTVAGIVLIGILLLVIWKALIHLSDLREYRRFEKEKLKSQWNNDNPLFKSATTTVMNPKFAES

human HA (high-affinity) LFA-1 on stably transfected K562 cells (human), sequence (P20701 26-1170 K312C/K319C limits assumed, chain 1 of 2): as the sequence (P20701 26-1170, chain 1 of 2) above, with K287C, K294C counted along it
human HA (high-affinity) LFA-1 on stably transfected K562 cells (human), sequence (P05107 23-769 limits assumed, chain 2 of 2, further chain): as the sequence (P05107 23-769, chain 2 of 2, further chain) above

Regarding “AL-57-protamine fusion protein (scFv AL-57 fused to human protamine residues 8-29, His6 tag) (from UniProt P04553 8-29)”, the Cy3+ K562 cells/Total K562 cells, % (in vivo Cy3-siRNA delivery) in assay [1] turned out to be 88.1%; in assay [2] it was 23.3%.
As to “TS1/22-protamine fusion protein (scFv TS1/22 fused to human protamine residues 8-29, His6 tag) (from UniProt P04553 8-29)”, the Cy3+ K562 cells/Total K562 cells, % (in vivo Cy3-siRNA delivery) in assay [1] was found to be 87.4%; in assay [2], 88.5%.
